This is an account of results in paper PMC12170907 (Cell Discovery, 2025).

Assay [1] deals with T1, Superfolder-GFP-tagged M-HBsAg (serotype ayw, genotype D3) (Hepatitis B virus genotype D3, serotype …, UniProt P03138).
T1 construct: source: FreeStyle 293F cells, BacMam virus; purified (ELISA); membranes solubilised with 1% LMNG and 0.1% CHS, supernatant (pull-down); not shown: superfolder GFP, N-terminal, kept
Description: pull-down. Conditions: one partner purified.

In assay [2] the target is T1, Superfolder-GFP-tagged M-HBsAg …. Briefly: ELISA. The settings on record: both partners purified.

B1: strep-tagged Fab_(GC1102) (Fab, V domains shown)
VH: EVQLVESGGGLVKPGGSLRLSCSASGFSLTKYKMTWVRQAPGKGLEWVSSISSTSRDIDYADSVKGRFTISRDNAKNSLFLQMSSLRVDDTAVYYCTRDGWLWGWDVRSNYYYNALDVWGQGTTVTVSS
VL: DIVVTQSPSSLSASVGDRVTITCRASQGIYNSIAWYQQKPGKAPKLLLYSTSTLLSGVPSRFSGSGSGTDYTLTITNLQPEDFATYYCQQYFVTPETFGQGTKLEIK
notes: also called strep-HA-tagged NAb_(GC1102); Fab_(GC1102) bait
B1: the binding result in assay [1] is “binds”.

B2: Myc-tagged Fab_(GC1102) (Fab, V domains shown)
VH: B1 VH
VL: B1 VL
notes: also called NAb_(GC1102); GC1102 prey
In the case of B2, the binding result in assay [1] was “binds”.

B3: 3× HA-tagged FabHBC (Fab, V domains shown)
VH: ELQLVESGGGWVQPGGSQRLSCAASGRIFRSFYMSWVRQAPGKGLEWVATINQDGSEKLYVDSVKGRFTISRDNAKNSLFLQMNNLRVEDTAVYYCAAWSGNSGGMDVWGQGTTVSVSS
VL: SYELTQPPSVSVSPGQTVSIPCSGDKLGNKNVCWFQHKPGQSPVLVIYEVKYRPSGIPERFSGSNSGNTATLTISGTQAMDEAAYFCQTWDSTTVVFGGGTRLTVL
notes: also called NAbHBC; parental antibody of VIR-3434; source: FreeStyle 293F, co-transfected heavy and light chain, purified from the supernatant (Ni-NTA, SP HP); not shown: His tag (from the Ni-NTA purification); 3× HA, C-terminal, kept
On to B3, for which the binding result in assay [2] is recorded as “binds”.

B4: strep-tagged Fab_(H006) (Fab, V domains shown)
VH: QMRLVESGGGVVRPGGSLRLSCAGSGFRFTGYGIHWVRQAPGKGLEWLAYISNDGSKKYHTDSVKGRFTVSRDNAKNTAYLQMNSLRVEETAVYFCAKDGYLSAARGYGMDVWGQGIPVTVSP
VL: SYVLTQPPSVSVAPGQTATITCGGNNIGGKSVHWFQQKPGQAPLLIISDDNDRPSGIPERVSGSNSGNTATLTISRVEAGDEADYYCQVWDTTSDQLVFGGGTMLTVL
Regarding B4, the binding result in assay [1] is listed as “binds”.

B5: Myc-tagged scFv_(H006) (scFv, V domains shown)
VH: B4 VH
VL: B4 VL
Regarding B5, in assay [1], the binding result is reported as “binds”.
